In paper PMC6814797, “C-terminal–modified LY2510924: a versatile scaffold for targeting C-X-C chemokine receptor type 4” (Scientific Reports, 2019):
Values belong to the compound of their own block, whether it stands above or below them. Where a SMILES comes first, the peptide text is derived from it. Bridges are numbered along the chain shown (N, C = ends). [ ]: non-standard residue; d: D form. 2Nal = N[C@@H](Cc1ccc2ccccc2c1)C(=O)O; Lys(iPr) = CC(C)NCCCC[C@H](N)C(=O)O

Assays:
[1] = biological target: T1, CXCR4 (Homo sapiens, UniProt P61073); test: Competitive binding assay: displacement of 125I-SDF-1α from CXCR4-expressing CCRF-CEM cells; settings: CCRF-CEM 0.5 × 10^6 cells, 125I-SDF-1α 1 kBq, 0.25 nM SDF-1α, one hour, room temperature per method (b54 says 37 °C); mean ± SD, n = 3
T1 construct: were determined with CCRF-CEM cells expressing endogenous CXCR4; endogenous in cells; host or cells: CCRF-CEM (human acute lymphoblastic leukemia) whole cells
Experimental: CCRF-CEM cells and ^125I-SDF-1α were used for the competitive binding assay. The competitive binding assay was performed in a 96-well MultiScreen HTS FB plate (Merck) treated with 0.1% polyethyleneimine. RPMI-1640 containing 1% bovine serum albumin (BSA) and 0.05% Tween20 was used for the assay buffer. Briefly, 200-μL reaction mixtures containing CCRF-CEM (0.5 × 10^6 cells), ^125I-SDF-1α (1 kBq), SDF-1α (0.05 pmol; R&D Systems, Minneapolis, MN), and varying concentrations of CXCR4 antagonists were incubated at room temperature for one hour. After the incubation, the cells were washed three times with the assay buffer, and radioactivity counts of cells were determined with a gamma counter. The IC50 values were calculated by using GraphPad Prism version 5.04 (GraphPad Software, San Diego, CA).
Since the purpose of this study was to assess in vivo accumulation to CXCR4-expressing cells, the apparent binding affinities were determined at 37 °C. […] The half-maximal inhibitory concentration (IC50) values of FRM001, its Ga-, Lu-, and Y-complexes, and other CXCR4 antagonists were determined with CCRF-CEM cells expressing endogenous CXCR4[34]. The displacement of ^125I-SDF-1α bound to the CXCR4 with the compounds was also evaluated in the presence of 0.25 nM of SDF-1α.

[2] = physchem; format: physicochemical; settings: pH 7.4
Experimental: A solution of ^67Ga-FRM001 (168 kBq, 56.8 pmol of FRM001) in 0.5 mL of 1-octanol was added to a 0.5 mL solution of phosphate-buffered saline (PBS) (pH 7.4). The mixture was vortexed and rotated at room temperature for 5 min. After centrifugation at 13,000 × g for 5 min, the radioactivity concentrations in samples of both the aqueous and organic phases were determined by using a gamma counter, and the logPow values were calculated.

[3] = in vivo; settings: female, SCID (C.B-17/Icr-scid/scid), mouse, iv, total radioactivity; for tissue uptake at 4 h: biodistribution
Experimental: All animal experiments were conducted in accordance with the Guidelines for Proper Conduct of Animal Experiments issued by the Science Council of Japan (June 1, 2006), and all experimental protocols were approved by the Institutional Animal Care and Use Committee of FUJIFILM RI Pharma Co., Ltd. (Permit No. Rin-170802 and Rin-180101). The acute lymphoblastic leukemia CCRF-CEM model was prepared using a published procedure. Briefly, 5 × 10^6 cells mixed with Matrigel (1:1; Corning, Corning, NY) were implanted subcutaneously into the rear flank of female 10-week-old SCID mice (C.B-17/Icr-scid/scid; CLEA Japan, Tokyo). After an average of three weeks, the animals were used in biodistribution and PET imaging studies. Tumor volumes ranged from 709–2,257 mm^3, while the tumor mass-to-body weight ratio was 3.1–9.4%.
Mice were sacrificed at four hours after the injection. Organs of interest were removed, weighed, and the radioactivity counts were determined using a gamma counter. The biodistribution of each sample was expressed as a percentage of the injected dose per gram of wet tissue weight (%ID/g).

T1 sequence (P61073 whole entry): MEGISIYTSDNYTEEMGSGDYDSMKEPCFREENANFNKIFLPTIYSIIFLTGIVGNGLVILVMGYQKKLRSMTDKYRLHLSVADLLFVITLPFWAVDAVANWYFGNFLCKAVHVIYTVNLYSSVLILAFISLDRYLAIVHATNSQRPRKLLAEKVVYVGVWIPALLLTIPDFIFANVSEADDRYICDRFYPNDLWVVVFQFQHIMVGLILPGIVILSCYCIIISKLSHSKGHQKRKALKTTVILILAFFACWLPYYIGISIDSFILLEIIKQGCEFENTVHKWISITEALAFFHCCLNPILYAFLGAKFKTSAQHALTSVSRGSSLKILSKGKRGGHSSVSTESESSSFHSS

SMILES: c1ccc(CNCc2ccc(CN3CCCNCCNCCCNCC3)cc2)nc1 [AMD3465, reference compound]
IC50 [1]: 12.8 ± 1.52 nM

SMILES: CC(C)NCCCC[C@@H]1NC(=O)[C@H](Cc2ccc(O)cc2)NC(=O)[C@H](Cc2ccccc2)NC(=O)CC[C@H](C(=O)N[C@@H](CCCCNC(C)C)C(=O)N[C@@H](CSC2CC(=O)N(CCNC(=O)CN3CCN(CC(=O)O)CCN(CC(=O)O)CCN(CC(=O)O)CC3)C2=O)C(N)=O)NC(=O)CNC(=O)[C@H](Cc2ccc3ccccc3c2)NC(=O)[C@@H](CCCNC(=N)N)NC1=O (stereo partly drawn) [FRM001, cyclo[Phe-Tyr-Lys(iPr)-D-Arg-2-Nal-Gly-D-Glu]-Lys(iPr)-Cys(maleimido-mono-amide-DOTA)-NH2]
IC50 [1]: 1.78 ± 0.15 nM

SMILES: CC(C)NCCCC[C@@H]1NC(=O)[C@H](Cc2ccc(O)cc2)NC(=O)[C@H](Cc2ccccc2)NC(=O)CC[C@H](C(=O)N[C@@H](CCCCNC(C)C)C(=O)N[C@@H](CSC2CC(=O)N(CCNC(=O)CN3CCN(CC(=O)O)CCN(CC(=O)O)CCN(CC(=O)O)CC3)C2=O)C(N)=O)NC(=O)CNC(=O)[C@H](Cc2ccc3ccccc3c2)NC(=O)[C@@H](CCCNC(=N)N)NC1=O (stereo partly shown) [^67Ga-FRM001, metal not drawn]
logD [2]: -3.23 ± 0.05 | tissue to tissue ratio at 4 h ([3]; 0.2 nmol FRM001/mouse): 59 | tissue uptake at 4 h ([3]; 0.2 nmol FRM001/mouse, adrenals): 1.02 ± 0.192 %ID/g | tissue uptake at 4 h ([3]; 0.2 nmol FRM001/mouse, blood): 0.205 ± 0.033 %ID/g | tissue uptake at 4 h ([3]; 0.2 nmol FRM001/mouse, bone): 0.682 ± 0.099 %ID/g | tissue uptake at 4 h ([3]; 0.2 nmol FRM001/mouse, brain): 0.015 ± 0.003 %ID/g | tissue uptake at 4 h ([3]; 0.2 nmol FRM001/mouse, fat): 0.291 ± 0.137 %ID/g | tissue uptake at 4 h ([3]; 0.2 nmol FRM001/mouse, heart): 0.385 ± 0.063 %ID/g | tissue uptake at 4 h ([3]; 0.2 nmol FRM001/mouse, kidneys): 4.85 ± 0.501 %ID/g | tissue uptake at 4 h ([3]; 0.2 nmol FRM001/mouse, large intestine): 0.852 ± 0.318 %ID/g | tissue uptake at 4 h ([3]; 0.2 nmol FRM001/mouse, liver): 16.1 ± 2.66 %ID/g | tissue uptake at 4 h ([3]; 0.2 nmol FRM001/mouse, lungs): 2.01 ± 0.301 %ID/g | tissue uptake at 4 h ([3]; 0.2 nmol FRM001/mouse, muscle): 0.107 ± 0.018 %ID/g | tissue uptake at 4 h ([3]; 0.2 nmol FRM001/mouse, ovary): 0.808 ± 0.247 %ID/g | tissue uptake at 4 h ([3]; 0.2 nmol FRM001/mouse, skin): 0.404 ± 0.076 %ID/g | tissue uptake at 4 h ([3]; 0.2 nmol FRM001/mouse, small intestine): 0.355 ± 0.036 %ID/g | tissue uptake at 4 h ([3]; 0.2 nmol FRM001/mouse, stomach): 0.381 ± 0.417 %ID/g | tissue uptake at 4 h ([3]; 0.2 nmol FRM001/mouse, thymus): 1.57 ± 0.587 %ID/g | tissue uptake at 4 h ([3]; 0.2 nmol FRM001/mouse, tumor): 12 ± 1.99 %ID/g | tissue uptake at 4 h ([3]; 0.2 nmol FRM001/mouse, uterus): 0.944 ± 0.338 %ID/g | tissue uptake at 4 h ([3]; 0.2 nmol/mouse, pancreas): 0.198 ± 0.016 %ID/g | tissue uptake at 4 h ([3]; 0.2 nmol/mouse, spleen): 3.77 ± 0.195 %ID/g

Now from value to compound:

IC50 [1]: 2.26 ± 0.51 nM
SMILES: CC(C)NCCCC[C@@H]1NC(=O)[C@H](Cc2ccc(O)cc2)NC(=O)[C@H](Cc2ccccc2)NC(=O)CC[C@H](C(=O)N[C@@H](CCCCNC(C)C)C(=O)N[C@@H](CSC2CC(=O)N(CCNC(=O)CN3CCN(CC(=O)O)CCN(CC(=O)O)CCN(CC(=O)O)CC3)C2=O)C(N)=O)NC(=O)CNC(=O)[C@H](Cc2ccc3ccccc3c2)NC(=O)[C@@H](CCCNC(=N)N)NC1=O (stereo partly shown) [Ga-FRM001]

IC50 [1]: 1.37 ± 0.1 nM
SMILES: CC(C)NCCCC[C@H](NC(=O)[C@H]1CCC(=O)N[C@@H](Cc2ccccc2)C(=O)N[C@@H](Cc2ccc(O)cc2)C(=O)N[C@@H](CCCCNC(C)C)C(=O)N[C@H](CCCNC(=N)N)C(=O)N[C@@H](Cc2ccc3ccccc3c2)C(=O)NCC(=O)N1)C(N)=O [LY2510924, cyclo[Phe-Tyr-Lys(iPr)-D-Arg-2-Nal-Gly-D-Glu]-Lys(iPr)-NH2] (FY[Lys(iPr)][dR][2Nal]G[dE][Lys(iPr)]-NH2; lactam N-7)

IC50 [1]: 2.15 ± 0.14 nM
SMILES: CC(C)NCCCC[C@@H]1NC(=O)[C@H](Cc2ccc(O)cc2)NC(=O)[C@H](Cc2ccccc2)NC(=O)CC[C@H](C(=O)N[C@@H](CCCCNC(C)C)C(=O)N[C@@H](CSC2CC(=O)N(CCNC(=O)CN3CCN(CC(=O)O)CCN(CC(=O)O)CCN(CC(=O)O)CC3)C2=O)C(N)=O)NC(=O)CNC(=O)[C@H](Cc2ccc3ccccc3c2)NC(=O)[C@@H](CCCNC(=N)N)NC1=O (stereo partly shown) [Lu-FRM001]

IC50 [1]: 0.89 ± 0.04 nM
SMILES: CC(C)NCCCC[C@@H]1NC(=O)[C@H](Cc2ccc(O)cc2)NC(=O)[C@H](Cc2ccccc2)NC(=O)CC[C@H](C(=O)N[C@@H](CCCCNC(C)C)C(=O)N[C@@H](CSC2CC(=O)N(CCNC(=O)CN3CCN(CC(=O)O)CCN(CC(=O)O)CCN(CC(=O)O)CC3)C2=O)C(N)=O)NC(=O)CNC(=O)[C@H](Cc2ccc3ccccc3c2)NC(=O)[C@@H](CCCNC(=N)N)NC1=O (stereo partly shown) [Y-FRM001]
